# Results: the supplement of paper PMC9170038
# Test system: MS2 coat protein
# Assay: apparent KD of MS2 coat protein; designed switch direction (-1 OFF switch, 1 ON switch): -1; higher = weaker reporter binding
# Outline: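 Designed RNA switches sharing common flanks were transcribed on Illumina chips by stalled E. coli RNA polymerase. They were titrated with SNAP-549-labelled MS2 coat protein, from 0.7 or 1.5 nM doubling to 3 µM, in Tris-HCl pH 7.5 buffer with KCl, MgCl2, BSA, DTT, tRNA and Tween-20. Titrations ran without input, with 200 uM small-molecule ligand, or with an oligonucleotide input. The apparent KD of each design is the median over its clusters, after curve-fitting of normalised cluster fluorescence.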
# [1] = input ligand: microRNA oligo, concentration not stated
# [2] = Eterna round: R95, input ligand: microRNA oligo, concentration not stated
sequence,measurement,setting,value
"AUGUGAUUGGCUCUGAGACAUGAGGAUCACCCAUGUGGAGCGCAGGAUAUCCGAACCGUGAAGGCGGAGAAGGGCGUCGUGGUA [Zasorequer] (Eterna round: R96, puzzle: Exclusion NG 3)",apparent KD of MS2 coat protein,input ligand: FMN 200 uM,39.6 nM
same,apparent KD of MS2 coat protein,[1],20.5 nM
same,apparent KD of MS2 coat protein,input ligand: none,26 nM
"AUGUGGGUAAGAAGGUGAAGAUAGAGCGUACGUUAUGGAACAUGAGGAUCACCCAUGUAGCUUUUUGCUCGUCUUAU [JR_SV3TOV2_Sub033] (puzzle: Sensor v3, turn-off variant 2)",apparent KD of MS2 coat protein,"Eterna round: R95, input ligand: FMN 200 uM",17.6 nM
same,apparent KD of MS2 coat protein,[2],61.8 nM
same,apparent KD of MS2 coat protein,"Eterna round: R95, input ligand: none",18.2 nM
"AUGUUACUCUGAGGAUAUUGUUUAUUCUUCUCACAUGAGGAUCACCCAUGUUUCCAUGUUAACCGCAAGAAGGCAGUUUUGUUU [JR_ExcNG2_Sub029] (Eterna round: R96, puzzle: Exclusion NG 2)",apparent KD of MS2 coat protein,input ligand: FMN 200 uM,46.1 nM
same,apparent KD of MS2 coat protein,[1],24.5 nM
same,apparent KD of MS2 coat protein,input ligand: none,36.3 nM
AUUAAUCAGCAGGAUAUAAGUAUCUGAAGGUGGUUAGAAGGGCUGACAUGAGGAUCACCCAUGUGCUCUUCGUG [Vevetigeat] (puzzle: Exclusion 6),apparent KD of MS2 coat protein,[2],12.4 nM
"AUUAUAAAUGUAGGAUAUCUGCACGUGUAGUGCAGAGAAGGACAUGAGGAUCACCCAUGUAGAUCAAUAAUAAUUAAUUUAAUU [ENG1/5-B3] (Eterna round: R96, puzzle: Exclusion NG 1)",apparent KD of MS2 coat protein,input ligand: FMN 200 uM,223 nM
same,apparent KD of MS2 coat protein,[1],33.4 nM
same,apparent KD of MS2 coat protein,input ligand: none,49.2 nM
"AUUAUGUUAGGAUAUGCUUAUGGUGGAUAGUCCAGUAUGGUGCAGAAGGGACAUGAGGAUCACCCAUGUGCUGA [EX4 #32] (Eterna round: R97, puzzle: Exclusion 4)",apparent KD of MS2 coat protein,input ligand: FMN 200 uM,50.9 nM
same,apparent KD of MS2 coat protein,input ligand: none,52.8 nM
"AUUGAAUGAAACCUCUAAUACAUGAGGAUCACCCAUGUUAUCGAGGAUAUGCAGAAUAGAUUAGAGCAGAAGGCGAAGUAAUAU [JR_ExcNG3_Sub024] (Eterna round: R96, puzzle: Exclusion NG 3)",apparent KD of MS2 coat protein,input ligand: FMN 200 uM,17.7 nM
same,apparent KD of MS2 coat protein,[1],9.67 nM
same,apparent KD of MS2 coat protein,input ligand: none,12.8 nM
"AUUGACUGAGGAUAUUGUACUGCUGACAUGAGGAUCACCCAUGUAUGUUAACUCGGCCGUCGAGAAGGCAGAAAUG [BotMod 21 - Jieux - Exclusion 5] (Eterna round: R97, puzzle: Exclusion 5)",apparent KD of MS2 coat protein,input ligand: FMN 200 uM,18.4 nM
same,apparent KD of MS2 coat protein,input ligand: none,34.8 nM
AUUGAUGUUGAGGAUAUGCUUUUAUUUAUUCUUGCAGAAGGCGAUACAUGAGGAUCACCCAUGUUCAUGGAAGU [JR_E6_Sub091] (puzzle: Exclusion 6),apparent KD of MS2 coat protein,[2],30.7 nM
"AUUGGUUUGCGAGGAUAUGCUAAUAGUAAGUAUGCAGAAGGCGCGUUACAUAGAACCUCUAGUUACAUGAGGAUCACCCAUGUU [JR_ExcNG1_Sub038] (Eterna round: R96, puzzle: Exclusion NG 1)",apparent KD of MS2 coat protein,[1],40.9 nM
"AUUGUUUAUGUAGGAUAUGCCUGGCGUGCCUUUGCAGAAGGACAUGAGGAUCACCCAUGUAUUGCGGUCUGCGUUCAGAUCGCA [salish99_ExNG1_r4_032] (Eterna round: R96, puzzle: Exclusion NG 1)",apparent KD of MS2 coat protein,[1],25 nM
"AUUUAAUUUAGCGAGAUCACAUGAGGAUCACCCAUGUAUAUAUAGGAUAUCAGCUCGAUUAGAGCUGAGAAGGAUAUAUACCGC [ExNG3/7-A1] (Eterna round: R96, puzzle: Exclusion NG 3)",apparent KD of MS2 coat protein,input ligand: FMN 200 uM,170 nM
same,apparent KD of MS2 coat protein,[1],98.7 nM
same,apparent KD of MS2 coat protein,input ligand: none,82 nM
AUUUAGAGAGGAUAUAUAAAGUGAAACAUGAGGAUCACCCAUGUAAUUUUAUGGAUGUAAAUAGAAGGCUCAUUUU [Mat - Exclusion 5 - JL mod - D3] (puzzle: Exclusion 5),apparent KD of MS2 coat protein,[2],36.5 nM
"AUUUAGUGAGGAUAUGGUAACGUUUACAUGAGGAUCACCCAUGUUUCAUGGGACUAGAGACUAGAAGGCACUAACG [JR_Ex5_Sub029] (Eterna round: R97, puzzle: Exclusion 5)",apparent KD of MS2 coat protein,input ligand: FMN 200 uM,291 nM
same,apparent KD of MS2 coat protein,input ligand: none,306 nM
AUUUUAAUAUAGGAUAUCGAAUUUAUUAAUUAUCGAGAAGGAUAAACAUGAGGAUCACCCAUGUGGUAUCAUGG [Mat - Exclusion 6 - JL Mod - D38] (puzzle: Exclusion 6),apparent KD of MS2 coat protein,[2],226 nM
"AUUUUGUCAGGAUAUUAGUAGUAAAUAAAUAAAAUUAUUACUGAGAAGGGACAUGAGGAUCACCCAUGUGUCUU [Salish 062 v9] (Eterna round: R97, puzzle: Exclusion 4)",apparent KD of MS2 coat protein,input ligand: FMN 200 uM,39.5 nM
same,apparent KD of MS2 coat protein,input ligand: none,18.3 nM
"CAAACACUGGUCCAAGCACACAUGAGGAUCACCCAUGUCGCCACAUAGGCGCCGGGAAUUAAGCUUCCGUUCGUCUG [Eternabot (L2) Solution 14] (Eterna round: R97, puzzle: Sensor, turn-off variant 1)",apparent KD of MS2 coat protein,input ligand: FMN 200 uM,113 nM
same,apparent KD of MS2 coat protein,input ligand: none,150 nM
"CAAAGUUGGUAAGGAUAUCCCACAUUAUUCUGACCCGUGCAAGCUACAUGAGGAUCACCCAUGUGGGAGAAGGUGCGUUAAAGA [Design 1] (Eterna round: R96, puzzle: Exclusion NG 2)",apparent KD of MS2 coat protein,input ligand: FMN 200 uM,93.4 nM
same,apparent KD of MS2 coat protein,[1],52 nM
same,apparent KD of MS2 coat protein,input ligand: none,94.3 nM
"CAAAGUUGGUAAGGAUAUCCUACAUUAUUCUGACCCGUGCAAGCUACAUGAGGAUCACCCAUGUGGGAGAAGGUGCGUUAAAGU [Design 3] (Eterna round: R96, puzzle: Exclusion NG 2)",apparent KD of MS2 coat protein,input ligand: FMN 200 uM,23.4 nM
same,apparent KD of MS2 coat protein,[1],17.4 nM
same,apparent KD of MS2 coat protein,input ligand: none,21.7 nM
"CAACACUGAGGAUAUGCUCGGCCGGUUCUCCGUGCCCAAGUACUUGAGGAUCACCCAAGUAGAAGGCAGUAAAA [Diedar] (Eterna round: R97, puzzle: Exclusion 2)",apparent KD of MS2 coat protein,input ligand: FMN 200 uM,18.1 nM
same,apparent KD of MS2 coat protein,input ligand: none,16 nM
CAACUGUGAGGAUAUGGUGAGUAGUGCCUGAGCGCUGCUCACCAGAAGGCACAUGAGGAUCACCCAUGUAUGAC [JL-ex4-2.02 denovo] (puzzle: Exclusion 4),apparent KD of MS2 coat protein,[2],38.3 nM
"CAAUAGGGAGGAUAUCCAAUAUAUGACAUGAGGAUCACCCAUGUUUCCACUCGUACCUCCGGAGAAGGCCCAUAAG [Ex5 #6] (Eterna round: R97, puzzle: Exclusion 5)",apparent KD of MS2 coat protein,input ligand: FMN 200 uM,21.3 nM
same,apparent KD of MS2 coat protein,input ligand: none,24.1 nM
"CAAUUCAGAGGAUAUGCGCAUAGAUAAGACUUUUUUUCUUAACAUGAGGAUCACCCAUGUAGAAGGCUGUAACC [Ex2 #63] (Eterna round: R97, puzzle: Exclusion 2)",apparent KD of MS2 coat protein,input ligand: FMN 200 uM,19.8 nM
same,apparent KD of MS2 coat protein,input ligand: none,18.2 nM
"CACAACAGAGGAUAUACAUGAGGAUCACCCAUGUGUUCCAGCUAGGAGACUAGCAAGUGUAGAAGGCUGUUGUG [Mat - Exclusion 3 - JL Mod - D10] (Eterna round: R97, puzzle: Exclusion 3)",apparent KD of MS2 coat protein,input ligand: FMN 200 uM,269 nM
same,apparent KD of MS2 coat protein,input ligand: none,501 nM
"CACCGGUGAGACAACAUGAGGAUCACCCAUGUGAACAGCUCACAGGAUAUCCAGGCACGAAAGAAGGAGAAGGGUGGCUGACUC [Veuson] (Eterna round: R96, puzzle: Exclusion NG 3)",apparent KD of MS2 coat protein,input ligand: FMN 200 uM,17.2 nM
same,apparent KD of MS2 coat protein,[1],13.6 nM
same,apparent KD of MS2 coat protein,input ligand: none,17.4 nM
"CACCGUUAACUAGGAUAUAGUACAUGAGGAUCACCCAUGUAAUAAAUGAGAAUUUCGGAUGUAUGCUAGAAGGAGUAAAUCGGC [Ostricism 48 - Jieux - Exclusion NG 2] (Eterna round: R96, puzzle: Exclusion NG 2)",apparent KD of MS2 coat protein,[1],45.5 nM
"CACCGUUACAGAGGAUAUGGCACAUGAGGAUCACCCAUGUAAUAAAUGAGAAUUUCGGAUGUAUUCCAGAAGGCUGUAACCGGC [Ostricism 68 - Jieux - Exclusion NG 2] (Eterna round: R96, puzzle: Exclusion NG 2)",apparent KD of MS2 coat protein,input ligand: FMN 200 uM,41.2 nM
same,apparent KD of MS2 coat protein,[1],19 nM
same,apparent KD of MS2 coat protein,input ligand: none,35.6 nM
"CACCGUUACAGAGGAUAUGUUACAUGAGGAUCACCCAUGUAAUAAAUGAGAAUUUCGAAUGUAAUACAGAAGGCUGGAAUCGGC [Ostracism 75 - Jieux - Exclusion NG 2] (Eterna round: R96, puzzle: Exclusion NG 2)",apparent KD of MS2 coat protein,input ligand: FMN 200 uM,38.3 nM
same,apparent KD of MS2 coat protein,[1],15.8 nM
same,apparent KD of MS2 coat protein,input ligand: none,21.3 nM
CAGAAACAUGAGGAUCACCCAUGUGAGGAUAUGCGUACGUUGUCCGUAGGCGACGUGCGCAGAAGGCACAAAGG [Mat - Mod of JL D84] (puzzle: Exclusion 1),apparent KD of MS2 coat protein,[2],111 nM
"CAGACCCGCCUUGGUCACAUGAGGAUCACCCAUGUUUAGGUCUAGGAUAUGGCCGUCGAGGACGGCCAGAAGGAGAAUAUCAUG [Eternabot solution 34] (Eterna round: R96, puzzle: Exclusion NG 3)",apparent KD of MS2 coat protein,input ligand: FMN 200 uM,102 nM
same,apparent KD of MS2 coat protein,[1],32.1 nM
same,apparent KD of MS2 coat protein,input ligand: none,43 nM
"CAGCUGAAUGUCAGGAUAUCUAGAGCCUCGGCUCUAGAGAAGGGACAUGAGGAUCACCCAUGUCACUCCAGCUG [BmEx4/3-B2] (Eterna round: R97, puzzle: Brourd's mod of Exclusion 4)",apparent KD of MS2 coat protein,input ligand: FMN 200 uM,22.4 nM
same,apparent KD of MS2 coat protein,input ligand: none,17.8 nM
"CAGCUGAAUGUGAGGAUAUGUCGAGCGAUAGCUCGAUAGAAGGCACAUGAGGAUCACCCAUGUCUCAACAGCUG [BmEx4/2-C4] (Eterna round: R97, puzzle: Brourd's mod of Exclusion 4)",apparent KD of MS2 coat protein,input ligand: FMN 200 uM,349 nM
same,apparent KD of MS2 coat protein,input ligand: none,28.3 nM
"CAGCUGAAUGUGAGGAUAUGUCUAGCUGCGGCUAGACAGAAGGCACAUGAGGAUCACCCAUGUCUCAACAGCUG [BmEx4/2-D3] (Eterna round: R97, puzzle: Brourd's mod of Exclusion 4)",apparent KD of MS2 coat protein,input ligand: FMN 200 uM,414 nM
same,apparent KD of MS2 coat protein,input ligand: none,35.5 nM
"CAGCUGUCAGGAUAUCGUGCAUACAACGAAAGUUCUAUGUGCGAGAAGGGACAUGAGGAUCACCCAUGUAAACG [Omei Ex4 A26] (Eterna round: R97, puzzle: Exclusion 4)",apparent KD of MS2 coat protein,input ligand: FMN 200 uM,101 nM
same,apparent KD of MS2 coat protein,input ligand: none,57.4 nM
